Reference: article PMC3486911 (PLoS Pathogens, 2012)
Values joined by “and” are separate entries in the source; they are usually repeats but may differ in a detail not shown here. Equal values may be shown once. Read-outs that look alike come from different tables or passages of the source.

Legend:
Assay in all cases: SPR
[1] = molecular target: V2 fHbp Lys264 mutant (to Ala) (Neisseria meningitidis)
[2] = molecular target: V1 fHbp His203-Ala (Neisseria meningitidis)
[3] = molecular target: V1 fHbp Ile196-Ala (Neisseria meningitidis)
[4] = molecular target: V2 fHbp Val196 mutant (to Ala) (Neisseria meningitidis)
[5] = molecular target: V2 fHbp Gln191 mutant (to Ala) (Neisseria meningitidis)
[6] = molecular target: V3 fHbp (V3.p28), wild type (Neisseria meningitidis) (UniProt E6MV22)
[7] = molecular target: V1 fHbp (V1.p1), wild type (Neisseria meningitidis) (UniProt Q9JXV4)
[8] = molecular target: V2 fHbp Thr304 mutant (to Ala) (Neisseria meningitidis)
[9] = molecular target: V2 fHbp Ser302 mutant (to Ala) (Neisseria meningitidis)
[10] = molecular target: V2 fHbp Val311 mutant (to Ala) (Neisseria meningitidis)
[11] = molecular target: V1 fHbp Gln193-Ala (Neisseria meningitidis)
[12] = molecular target: V1 fHbp Lys191-Ala (Neisseria meningitidis)
[13] = molecular target: V2 fHbp Glu262 mutant (to Ala) (Neisseria meningitidis)
[14] = molecular target: V2 fHbp Lys268 mutant (to Ala) (Neisseria meningitidis)
[15] = molecular target: V1 fHbp Arg195-Ala (Neisseria meningitidis)
[16] = molecular target: V2 fHbp Leu199 mutant (to Ala) (Neisseria meningitidis)
[17] = molecular target: V1 fHbp Phe194-Ala (Neisseria meningitidis)
[18] = molecular target: V2 fHbp His203 mutant (to Ala) (Neisseria meningitidis)
[19] = molecular target: V1 fHbp His203-Ala (Neisseria meningitidis); remark: listed apart in the source
[20] = molecular target: V1 fHbp Ile196-Ala (Neisseria meningitidis); remark: listed apart in the source
[21] = molecular target: V1 fHbp (V1.p1), wild type (Neisseria meningitidis) (UniProt Q9JXV4); remark: listed apart in the source
[22] = molecular target: V1 fHbp Gln193-Ala (Neisseria meningitidis); remark: listed apart in the source
[23] = molecular target: V1 fHbp Lys191-Ala (Neisseria meningitidis); remark: listed apart in the source
[24] = molecular target: V1 fHbp Arg195-Ala (Neisseria meningitidis); remark: listed apart in the source
[25] = molecular target: V1 fHbp Phe194-Ala (Neisseria meningitidis); remark: listed apart in the source
[26] = molecular target: V3 fHbp Gln134 mutant (to Ala) (Neisseria meningitidis) (UniProt E6MV22)
[27] = molecular target: V3 fHbp Ala99Glu (Neisseria meningitidis)
[28] = molecular target: V3 fHbp Asp92 mutant (to Ala) (Neisseria meningitidis)
[29] = molecular target: V3 fHbp Asn123 mutant (to Ala) (Neisseria meningitidis)
[30] = molecular target: V3 fHbp Pro46 mutant (to Ala) (Neisseria meningitidis)
[31] = molecular target: V3 fHbp Asn48 mutant (to Ala) (Neisseria meningitidis)
[32] = molecular target: V3 fHbp His190 mutant (to Ala) (Neisseria meningitidis)
[33] = molecular target: V3 fHbp Val91 mutant (to Ala) (Neisseria meningitidis)
[34] = molecular target: V3 fHbp Lys127 mutant (to Ala) (Neisseria meningitidis)
[35] = molecular target: V3 fHbp Thr128 mutant (to Ala) (Neisseria meningitidis)
[36] = molecular target: V3 fHbp Ser44 mutant (to Ala) (Neisseria meningitidis)
[37] = molecular target: V3 fHbp Ile122 mutant (to Ala) (Neisseria meningitidis)
[38] = molecular target: V3 fHbp Asp126 mutant (to Ala) (Neisseria meningitidis)
[39] = molecular target: V3 fHbp Leu98 mutant (to Ala) (Neisseria meningitidis)
[40] = molecular target: V3 fHbp Pro125 mutant (to Ala) (Neisseria meningitidis)
[41] = molecular target: V2 fHbp (V2.p21), wild type (Neisseria meningitidis) (UniProt E6MV22)
[42] = molecular target: V2 fHbp Lys264 mutant (to Ala) (Neisseria meningitidis); remark: listed apart in the source
[43] = molecular target: V2 fHbp Val196 mutant (to Ala) (Neisseria meningitidis); remark: listed apart in the source
[44] = molecular target: V2 fHbp Gln191 mutant (to Ala) (Neisseria meningitidis); remark: listed apart in the source
[45] = molecular target: V3 fHbp (V3.p28), wild type (Neisseria meningitidis) (UniProt E6MV22); remark: listed apart in the source
[46] = molecular target: V1 fHbp (V1.p1), wild type (Neisseria meningitidis) (UniProt Q9JXV4); remark: listed apart in the source
[47] = molecular target: V2 fHbp Thr304 mutant (to Ala) (Neisseria meningitidis); remark: listed apart in the source
[48] = molecular target: V2 fHbp Ser302 mutant (to Ala) (Neisseria meningitidis); remark: listed apart in the source
[49] = molecular target: V2 fHbp Val311 mutant (to Ala) (Neisseria meningitidis); remark: listed apart in the source
[50] = molecular target: V2 fHbp Glu262 mutant (to Ala) (Neisseria meningitidis); remark: listed apart in the source
[51] = molecular target: V2 fHbp Lys268 mutant (to Ala) (Neisseria meningitidis); remark: listed apart in the source
[52] = molecular target: V2 fHbp Leu199 mutant (to Ala) (Neisseria meningitidis); remark: listed apart in the source
[53] = molecular target: V2 fHbp His203 mutant (to Ala) (Neisseria meningitidis); remark: listed apart in the source

Substance: human factor H CCP 6 and 7 (fH67) (domain or fragment)
- Kd [1]: 9.5 nM and 8.6 nM
- Kd [2]: 1.4 nM and 2 nM
- Kd [3]: 1.4 nM and 1.6 nM
- Kd [4]: 32 nM and 14 nM
- Kd [5]: 2.7 nM and 2.5 nM
- Kd [6]: 2.8 nM and 3 nM and 2.9 nM
- Kd [7]: 2.7 nM and 3.1 nM and 2.6 nM
- Kd [8]: 7.9 nM and 8.5 nM
- Kd [9]: 3.7 nM and 4.4 nM
- Kd [10]: 7 nM and 7.9 nM
- Kd [11]: 5.3 nM and 4.2 nM
- Kd [12]: 4.5 nM and 3.8 nM
- Kd [13]: 5.6 nM and 5 nM
- Kd [14]: 2.3 nM and 2.2 nM
- Kd [15]: 360 nM and 75 nM
- Kd [16]: 16 nM and 15 nM
- Kd [17]: 6 nM and 6.3 nM
- Kd [18]: 2.5 nM and 2.8 nM
- Kd [19]: 1.7 nM
- Kd [20]: 1.5 nM
- Kd [21]: 2.8 nM and 2.35 nM and 2.45 nM
- Kd [22]: 4.75 nM
- Kd [23]: 4.15 nM
- Kd [24]: 218 nM
- Kd [25]: 6.15 nM
- Kd [26]: 2.65 nM
- Kd [27]: 74.5 nM
- Kd [28]: 4.75 nM
- Kd [29]: 8 nM
- Kd [30]: 0.028 nM
- Kd [31]: 3.65 nM
- Kd [32]: 3.35 nM
- Kd [33]: 6.05 nM
- Kd [34]: 2.95 nM
- Kd [35]: 4.2 nM
- Kd [36]: 9.9 nM
- Kd [37]: 10.2 nM
- Kd [38]: 6.4 nM
- Kd [39]: 87 nM
- Kd [40]: 3.3 nM
- Kd [41]: 2.15 nM and 1.85 nM
- Kd [42]: 9.05 nM
- Kd [43]: 23 nM
- Kd [44]: 2.6 nM
- Kd [45]: 2.95 nM
- Kd [46]: 2.85 nM
- Kd [47]: 8.2 nM
- Kd [48]: 4.05 nM
- Kd [49]: 7.45 nM
- Kd [50]: 5.3 nM
- Kd [51]: 2.25 nM
- Kd [52]: 15.5 nM
- Kd [53]: 2.65 nM
